Results as given in the Human Domainome abundance scans (Beltran et al. 2025).
± gives the uncertainty stated by the source.

B1: Zinc finger MYM-type protein 3, residues 405 to 444; numbered along this chain, Q14202 (parent)
chain: DATRCSICQKTGEVLHEVSNGSVVHRLCSDSCFSKFRANK

Variants of: B1
Assay: abundance fitness (aPCA) (normalised: wild type 0, dead -1); higher = more abundant; growth selection in yeast, the domain comes from the species named
Conditions: Homo sapiens

Row | Variant | abundance fitness
1 | DATRCSICQKTGEVLHEVSNGSVVHRLCSTSCFSKFRANK | -0.219 ± 0.066
2 | DATRCSICQKTGEVLHEVSNGSVVHRRCSDSCFSKFRANK | -0.393 ± 0.055
3 | DATRCSICQKTGEVLHEVSNGSVVHRVCSDSCFSKFRANK | -0.22 ± 0.056
4 | DATRCSICQKTGEVLHEVSNGSVVHRQCSDSCFSKFRANK | -0.294 ± 0.07
5 | DATRCSICQKTGEVLHEVSNGSVVHRDCSDSCFSKFRANK | -0.569 ± 0.092
6 | DATRCSICQKTGEVLHEVSNGSVVHRECSDSCFSKFRANK | -0.352 ± 0.067
7 | DATRCSICQKTGEVLHEVSNGSVVHRGCSDSCFSKFRANK | -0.331 ± 0.053
8 | DATRCSICQKTGEVLHEVSNGSVVHRMCSDSCFSKFRANK | 0.033 ± 0.073
9 | DATRCSICQKTGEVLHEVSNGSVVHRCCSDSCFSKFRANK | 0.032 ± 0.07
10 | DATRCSICQKTGEVLHEVSNGSVVHRPCSDSCFSKFRANK | -0.458 ± 0.078
11 | DATRCSICQKTGEVLHEVSNGSVVHRACSDSCFSKFRANK | -0.393 ± 0.059
12 | DATRCSICQKTGEVLHEVSNGSVVHRNCSDSCFSKFRANK | -0.618 ± 0.096
13 | DATRCSICQKTGEVLHEVSNGSVVHRWCSDSCFSKFRANK | -0.205 ± 0.056
14 | DATRCSICQKTGEVLHEVSNGSVVHRICSDSCFSKFRANK | -0.129 ± 0.12
15 | DATRCSICQKTGEVLHEVSNGSVVHRHCSDSCFSKFRANK | -0.382 ± 0.08
16 | DATRCSICQKTGEVLHEVSNGSVVHRYCSDSCFSKFRANK | -0.056 ± 0.1
17 | DATRCSICQKTGEVLHEVSNGSVVHRFCSDSCFSKFRANK | -0.019 ± 0.15
18 | DATRCSICQKTGEVLHEVSNGSVVHRSCSDSCFSKFRANK | -0.447 ± 0.062
19 | DATRCSICQKTGEVLHEVSNGSVVHRKCSDSCFSKFRANK | -0.317 ± 0.069
20 | DATRCSICQKTGEVLHEVSNGSVVHHLCSDSCFSKFRANK | -0.074 ± 0.062
21 | DATRCSICQKTGEVLHEVSNGSVVHYLCSDSCFSKFRANK | -0.339 ± 0.084

Row | Variant | abundance fitness
22 | DATRCSICQKTGEVLHEVSNGSVVHFLCSDSCFSKFRANK | -0.177 ± 0.075
23 | DATRCSICQKTGEVLHEVSNGSVVHKLCSDSCFSKFRANK | 0.013 ± 0.074
24 | DATRCSICQKTGEVLHEVSNGSVVHNLCSDSCFSKFRANK | -0.195 ± 0.077
25 | DATRCSICQKTGEVLHEVSNGSVVHLLCSDSCFSKFRANK | -0.196 ± 0.055
26 | DATRCSICQKTGEVLHEVSNGSVVHILCSDSCFSKFRANK | -0.173 ± 0.073
27 | DATRCSICQKTGEVLHEVSNGSVVHMLCSDSCFSKFRANK | -0.12 ± 0.078
28 | DATRCSICQKTGEVLHEVSNGSVVHQLCSDSCFSKFRANK | 0.097 ± 0.059
29 | DATRCSICQKTGEVLHEVSNGSVVHTLCSDSCFSKFRANK | -0.048 ± 0.065
30 | DATRCSICQKTGEVLHEVSNGSVVHELCSDSCFSKFRANK | -0.283 ± 0.063
31 | DATRCSICQKTGEVLHEVSNGSVVHPLCSDSCFSKFRANK | -0.074 ± 0.066
32 | DATRCSICQKTGEVLHEVSNGSVVHDLCSDSCFSKFRANK | -0.606 ± 0.16
33 | DATRCSICQKTGEVLHEVSNGSVVHWLCSDSCFSKFRANK | -0.21 ± 0.061
34 | DATRCSICQKTGEVLHEVSNGSVVHGLCSDSCFSKFRANK | -0.117 ± 0.053
35 | DATRCSICQKTGEVLHEVSNGSVVHCLCSDSCFSKFRANK | -0.312 ± 0.1
36 | DATRCSICQKTGEVLHEVSNGSVVHALCSDSCFSKFRANK | -0.02 ± 0.052
37 | DATRCSICQKTGEVLHEVSNGSVVHRLCCDSCFSKFRANK | -0.591 ± 0.077
38 | DATRCSICQKTGEVLHEVSNGSVVHRLCTDSCFSKFRANK | -0.771 ± 0.1
39 | DATRCSICQKTGEVLHEVSNGSVVHRLCGDSCFSKFRANK | -0.277 ± 0.054
40 | DATRCSICQKTGEVLHEVSNGSVVHRLCVDSCFSKFRANK | -0.596 ± 0.062
41 | DATRCSICQKTGEVLHEVSNGSVVHRLCIDSCFSKFRANK | -0.857 ± 0.13
42 | DATRCSICQKTGEVLHEVSNGSVVHRLCHDSCFSKFRANK | -0.683 ± 0.16

Row | Variant | abundance fitness
43 | DATRCSICQKTGEVLHEVSNGSVVHRLCPDSCFSKFRANK | -0.487 ± 0.074
44 | DATRCSICQKTGEVLHEVSNGSVVHRLCQDSCFSKFRANK | -0.427 ± 0.087
45 | DATRCSICQKTGEVLHEVSNGSVVHRLCMDSCFSKFRANK | -0.622 ± 0.086
46 | DATRCSICQKTGEVLHEVSNGSVVHRLCDDSCFSKFRANK | -0.404 ± 0.076
47 | DATRCSICQKTGEVLHEVSNGSVVHRLCRDSCFSKFRANK | -0.684 ± 0.062
48 | DATRCSICQKTGEVLHEVSNGSVVHRLCLDSCFSKFRANK | -0.755 ± 0.067
49 | DATRCSICQKTGEVLHEVSNGSVVHRLCWDSCFSKFRANK | -0.669 ± 0.07
50 | DATRCSICQKTGEVLHEVSNGSVVHRLCKDSCFSKFRANK | -0.602 ± 0.09
51 | DATRCSICQKTGEVLHEVSNGSVVHRLCYDSCFSKFRANK | -0.936 ± 0.24
52 | DATRCSICQKTGEVLHEVSNGSVVHRLCADSCFSKFRANK | -0.363 ± 0.061
53 | DATRCSICQKTGEVLHEVSNGSVVHRLCFDSCFSKFRANK | -1.05 ± 0.14
54 | DATRCSICQKTGEVLHEVSNGSVVHRLCEDSCFSKFRANK | -0.325 ± 0.063
55 | DATRCSICQKTGEVLHEVSNGSVVHRLCSDDCFSKFRANK | 0.094 ± 0.09
56 | DATRCSICQKTGEVLHEVSNGSVVHRLCSDCCFSKFRANK | -0.185 ± 0.18
57 | DATRCSICQKTGEVLHEVSNGSVVHRLCSDFCFSKFRANK | -0.166 ± 0.083
58 | DATRCSICQKTGEVLHEVSNGSVVHRLCSDACFSKFRANK | -0.063 ± 0.058
59 | DATRCSICQKTGEVLHEVSNGSRVHRLCSDSCFSKFRANK | -0.013 ± 0.052
60 | DATRCSICQKTGEVLHEVSNGSSVHRLCSDSCFSKFRANK | 0.007 ± 0.056
61 | DATRCSICQKTGEVLHEVSNGSTVHRLCSDSCFSKFRANK | 0.126 ± 0.061
62 | DATRCSICQKTGEVLHEVSNGSYVHRLCSDSCFSKFRANK | -0.166 ± 0.077
63 | DATRCSICQKTGEVLHEVSNGSWVHRLCSDSCFSKFRANK | -0.757 ± 0.076
